Reference: the RNAGym collection of RNA variant scans (doi:10.1101/gr.219683.116)

B1: mRNA-splicing (parent)
chain: AGUUGCUGCUGGGAGCUCCAGCACAGUGAAAUGGACAGAAGGGCAGAGCAA

Variants of: B1
Assay: exon inclusion enrichment index; higher = more inclusion; WT1 exon 5 minigene, HEK293

First: G5A C6U U7A G8U C9A U10G G11A
Second: G5C C6U G8C C9U U10C A14C G15U
The “exon inclusion enrichment index” value of the first is lower: 0.0194 for the first, 0.523 for the second.

Going from G5C C6U G8U C9U to C6A U7C C9A U10C G21C C22U, the “exon inclusion enrichment index” value rises from 0.106 to 3.3.

Going from G5U G8U C9U A23G C24U to G5C C6A U7C G8A U10A G38U A39U, the “exon inclusion enrichment index” value falls from 0.0193 to 0.00131.

Compared with G5C C6U G8C C9U U10C G38C, G5U G8U C9U G34U A35C is lower in “exon inclusion enrichment index” value: 1.28 for the first, 0.0387 for the second.

First: G5C C6A U7C G8A U10A G12U G13A
Second: C9A
The “exon inclusion enrichment index” value of the first is lower: 0.0173 for the first, 1.96 for the second.

First: C6A U7A C9A U10A G46C A47C
Second: C6A U7A C9A U10A G46C A47U
The “exon inclusion enrichment index” value of the first is higher: 0.943 for the first, 0.833 for the second.

Going from G5C C6U G8C C9U U10C C24A A25C to G5A C6G U7G C9A G34U, the “exon inclusion enrichment index” value falls from 3.4 to 0.000859.

First: C6A U7A C9A U10A G12C G13A
Second: C6A U7A C9A U10A A47U G48C
The “exon inclusion enrichment index” value of the first is higher: 1.72 for the first, 0.497 for the second.

First: G5C C6A U7C G8A C9G
Second: C6A U7A C9A U10A A29G
The “exon inclusion enrichment index” value of the first is lower: 0.446 for the first, 1.06 for the second.

First: A30C A31G
Second: G5A C6U U7A G8U C9A C24G A25G
The “exon inclusion enrichment index” value of the first is higher: 0.41 for the first, 0.0168 for the second.

First: G5C C6U G8C C9U U10C A30G A31C
Second: G5A U7C G8A U10C G46A A47C
The “exon inclusion enrichment index” value of the first is lower: 0.276 for the first, 3.08 for the second.

Compared with C24A A25C, G5A C6U U7A G8U C9A G34U A35U is lower in “exon inclusion enrichment index” value: 0.728 for the first, 0.007 for the second.

Going from G5C C6G U7C U10C G33U G34U to G5U G8U C9U C44G A45G, the “exon inclusion enrichment index” value falls from 0.875 to 0.0217.

First: G5C C6A U7C G8A U10A A29G A30G
Second: G26U U27C
The “exon inclusion enrichment index” value of the first is lower: 0.0879 for the first, 0.588 for the second.

Compared with G5C C6A U7C G8A U10C G11C, C6A U7A C9A U10A C44U A45U is lower in “exon inclusion enrichment index” value: 1.58 for the first, 0.433 for the second.

Compared with G5C C6A U7C G8A U10A G42A, G5A C6U U7A G8U C9A U17G C18G is lower in “exon inclusion enrichment index” value: 0.428 for the first, 0.0481 for the second.

Going from G5A C6G U7G C9A U27G to G5C C6G U7C U10C G34U, the “exon inclusion enrichment index” value rises from 0.000925 to 1.32.

Compared with G5U G8U C9U C24G A25C, G5C C6U G8C C9U U10C A20G is higher in “exon inclusion enrichment index” value: 0.663 for the first, 2.69 for the second.

Going from U10G G11A to C6A U7A C9A U10A C24A A25U, the “exon inclusion enrichment index” value falls from 2.34 to 0.754.

First: C6A U7A C9A U10A C44G
Second: C6A U7A C9A U10A U27A G28U
The “exon inclusion enrichment index” value of the first is higher: 1.03 for the first, 0.247 for the second.

Compared with G5C C6U G8C C9U U10C C16G, G5U G8U C9U A39C A40U is lower in “exon inclusion enrichment index” value: 1.02 for the first, 0.141 for the second.

First: C6A U7A C9A U10A C18U C19G
Second: G5A C6G U7G C9A U10G G11A
The “exon inclusion enrichment index” value of the first is higher: 0.119 for the first, 0.00349 for the second.

Compared with G5C C6A U7C G8A U10A U17C C18U, C6A U7A C9U U10C is higher in “exon inclusion enrichment index” value: 0.0619 for the first, 1.36 for the second.

Compared with C6A U7C C9A U10C C22A A23U, G5C C6A U7C G8A U10A A29U A30C is lower in “exon inclusion enrichment index” value: 2.92 for the first, 0.0766 for the second.

First: G5A C6U U7A G8U C9A G21C C22A
Second: G5U G8U C9U U17A C18A
The “exon inclusion enrichment index” value of the first is higher: 0.109 for the first, 0.0626 for the second.

First: C6A U7A
Second: C6A U7A C9A U10A A14G
The “exon inclusion enrichment index” value of the first is lower: 0.261 for the first, 0.618 for the second.

Compared with G5C C6U G8C C9U U10C A37U G38C, C6A U7C C9A U10C A31G U32A is higher in “exon inclusion enrichment index” value: 1.03 for the first, 5.2 for the second.

Going from C6A U7C C9A U10C U32C G33A to C44G A45G, the “exon inclusion enrichment index” value falls from 2.3 to 0.0345.

First: U3G U4A G5A C6G U7G C9A
Second: G46C A47G
The “exon inclusion enrichment index” value of the first is lower: 0.0126 for the first, 0.339 for the second.

Going from C6A U7A C9A U10A G26C to G5A C6U U7A G8U C9A A25U G26U, the “exon inclusion enrichment index” value falls from 1.1 to 0.0803.

First: U4A G5U
Second: G5C C6A U7C G8A U10A U17A C18A
The “exon inclusion enrichment index” value of the first is higher: 0.0569 for the first, 0.043 for the second.

Compared with G5A C6U U7A G8U C9A A40G G41C, G5A U7C G8A U10C G11U is higher in “exon inclusion enrichment index” value: 0.455 for the first, 1.6 for the second.

First: G5U G8U C9U G11C G12A
Second: C6A U7A G8C U10A
The “exon inclusion enrichment index” value of the first is lower: 0.0135 for the first, 0.371 for the second.

Going from G5A C6G to G5A C6A, the “exon inclusion enrichment index” value rises from 0.00371 to 0.0111.

First: A31U U32G
Second: C24U A25G
The “exon inclusion enrichment index” value of the first is lower: 0.056 for the first, 0.487 for the second.

Going from G5U G8U C9U G42A G43A to G5A U7C G8A U10C G21U, the “exon inclusion enrichment index” value rises from 1.46 to 1.92.

First: G5C C6A U7C G8A U10A A30U A31C
Second: G5C C6U G8C C9U U10C A29C A30U
The “exon inclusion enrichment index” value of the first is lower: 0.143 for the first, 1.18 for the second.

Compared with G5A U7C G8A U10C A25C G26C, G5A C6G U7G C9A C19U A20C is lower in “exon inclusion enrichment index” value: 2.75 for the first, 0.00291 for the second.

First: G5A C6U U7A G8U C9A G21U C22A
Second: G5U G8U C9U A25U G26C
The “exon inclusion enrichment index” value of the first is lower: 0.0356 for the first, 0.219 for the second.

First: G5A C6U U7A G8U C9A G28U
Second: G5A C6G U7G C9A U10A G11U
The “exon inclusion enrichment index” value of the first is higher: 0.0124 for the first, 0.00545 for the second.

First: G5C C6G U7C U10C C36U A37G
Second: G5U G8U C9U G26C U27A
The “exon inclusion enrichment index” value of the first is higher: 2.77 for the first, 0.135 for the second.

Compared with G5C C6A U7C G8A U10A G33C G34A, C6A U7A C9A U10A A31G U32G is higher in “exon inclusion enrichment index” value: 0.0324 for the first, 0.383 for the second.
